# Data taken from paper PMC12746103, “Structural insights into the exchange mechanism of a replicative DNA polymerase” (Nucleic Acids Research, 2025).
# Values joined by “and” are separate entries in the source; they are usually repeats but may differ in a detail not shown here. Equal entries are not always repeated.
# T1: gp43(exo-) DNA polymerase;gp45 sliding clamp (wt) (T4 bacteriophage;T4 bacteriophage, UniProt P04415;P04525 1-898;1-228, D219A|)
# T1 sequence 1: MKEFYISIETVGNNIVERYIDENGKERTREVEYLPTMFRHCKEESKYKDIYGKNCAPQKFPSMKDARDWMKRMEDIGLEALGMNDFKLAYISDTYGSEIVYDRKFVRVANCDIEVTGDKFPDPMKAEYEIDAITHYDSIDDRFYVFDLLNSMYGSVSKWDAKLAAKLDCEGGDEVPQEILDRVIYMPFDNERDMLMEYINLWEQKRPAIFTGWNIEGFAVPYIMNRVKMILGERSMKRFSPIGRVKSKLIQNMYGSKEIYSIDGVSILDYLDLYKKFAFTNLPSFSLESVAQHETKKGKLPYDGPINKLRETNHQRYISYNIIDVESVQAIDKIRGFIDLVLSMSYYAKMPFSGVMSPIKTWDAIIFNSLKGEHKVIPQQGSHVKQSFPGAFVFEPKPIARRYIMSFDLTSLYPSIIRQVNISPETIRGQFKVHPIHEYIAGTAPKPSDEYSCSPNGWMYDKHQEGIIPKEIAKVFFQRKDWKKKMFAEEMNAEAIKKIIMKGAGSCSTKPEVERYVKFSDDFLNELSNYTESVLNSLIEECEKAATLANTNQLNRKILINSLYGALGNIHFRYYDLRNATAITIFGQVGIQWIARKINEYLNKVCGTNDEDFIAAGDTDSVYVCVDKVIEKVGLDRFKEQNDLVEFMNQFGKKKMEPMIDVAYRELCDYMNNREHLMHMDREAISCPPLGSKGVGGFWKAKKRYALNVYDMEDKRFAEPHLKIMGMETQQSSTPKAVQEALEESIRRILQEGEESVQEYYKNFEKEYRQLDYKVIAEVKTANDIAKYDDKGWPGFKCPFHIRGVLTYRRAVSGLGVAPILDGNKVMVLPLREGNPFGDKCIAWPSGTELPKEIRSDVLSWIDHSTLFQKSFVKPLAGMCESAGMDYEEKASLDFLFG
# T1 sequence 2: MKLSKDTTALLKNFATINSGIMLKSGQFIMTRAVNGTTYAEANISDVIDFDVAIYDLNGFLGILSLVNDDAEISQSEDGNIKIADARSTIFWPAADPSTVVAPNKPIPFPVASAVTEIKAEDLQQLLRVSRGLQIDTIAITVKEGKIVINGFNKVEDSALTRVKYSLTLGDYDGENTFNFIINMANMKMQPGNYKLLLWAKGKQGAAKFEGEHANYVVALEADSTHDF
# T2: dimer-interface mutant gp43(exo-) DNA polymerase;gp45 sliding clamp (wt) (T4 bacteriophage;T4 bacteriophage, UniProt P04415;P04525 1-898;1-228, D219A;D75R;Q430E;K432E|)
# T2 sequence 1: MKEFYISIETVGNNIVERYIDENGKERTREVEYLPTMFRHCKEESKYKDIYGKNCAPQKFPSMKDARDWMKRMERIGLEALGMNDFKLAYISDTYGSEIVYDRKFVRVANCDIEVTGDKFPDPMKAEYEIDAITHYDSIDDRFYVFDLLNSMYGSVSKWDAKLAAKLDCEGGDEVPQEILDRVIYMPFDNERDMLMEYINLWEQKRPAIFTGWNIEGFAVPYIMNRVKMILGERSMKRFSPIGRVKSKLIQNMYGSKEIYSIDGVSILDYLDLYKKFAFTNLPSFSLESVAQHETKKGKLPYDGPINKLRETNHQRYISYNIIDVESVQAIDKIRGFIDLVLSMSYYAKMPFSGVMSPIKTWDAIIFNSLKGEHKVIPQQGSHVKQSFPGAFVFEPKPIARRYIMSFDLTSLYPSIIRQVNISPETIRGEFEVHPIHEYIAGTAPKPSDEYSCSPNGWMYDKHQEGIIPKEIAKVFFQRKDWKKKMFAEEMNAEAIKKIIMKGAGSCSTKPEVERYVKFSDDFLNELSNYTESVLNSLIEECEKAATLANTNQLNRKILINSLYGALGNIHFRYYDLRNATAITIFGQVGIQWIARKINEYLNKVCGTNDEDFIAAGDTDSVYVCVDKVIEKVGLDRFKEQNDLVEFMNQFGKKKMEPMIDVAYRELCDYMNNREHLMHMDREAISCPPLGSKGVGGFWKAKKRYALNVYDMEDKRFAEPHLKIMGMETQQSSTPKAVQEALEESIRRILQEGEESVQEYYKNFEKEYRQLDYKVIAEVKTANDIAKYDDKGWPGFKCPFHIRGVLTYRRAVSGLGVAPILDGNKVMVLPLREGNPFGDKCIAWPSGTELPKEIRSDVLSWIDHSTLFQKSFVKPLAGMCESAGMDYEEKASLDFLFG
# T2 sequence 2: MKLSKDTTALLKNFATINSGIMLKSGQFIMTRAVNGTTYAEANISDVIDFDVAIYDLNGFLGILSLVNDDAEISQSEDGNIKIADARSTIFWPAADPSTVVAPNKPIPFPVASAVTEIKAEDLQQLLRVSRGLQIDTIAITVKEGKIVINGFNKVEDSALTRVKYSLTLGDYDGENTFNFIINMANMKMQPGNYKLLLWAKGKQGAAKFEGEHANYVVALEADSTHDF
# B1: T4 bacteriophage gp43(exo-) exonuclease-deficient DNA polymerase (D219A) (enzyme, bacteriophage T4)
# chain: MKEFYISIETVGNNIVERYIDENGKERTREVEYLPTMFRHCKEESKYKDIYGKNCAPQKFPSMKDARDWMKRMEDIGLEALGMNDFKLAYISDTYGSEIVYDRKFVRVANCDIEVTGDKFPDPMKAEYEIDAITHYDSIDDRFYVFDLLNSMYGSVSKWDAKLAAKLDCEGGDEVPQEILDRVIYMPFDNERDMLMEYINLWEQKRPAIFTGWNIEGFAVPYIMNRVKMILGERSMKRFSPIGRVKSKLIQNMYGSKEIYSIDGVSILDYLDLYKKFAFTNLPSFSLESVAQHETKKGKLPYDGPINKLRETNHQRYISYNIIDVESVQAIDKIRGFIDLVLSMSYYAKMPFSGVMSPIKTWDAIIFNSLKGEHKVIPQQGSHVKQSFPGAFVFEPKPIARRYIMSFDLTSLYPSIIRQVNISPETIRGQFKVHPIHEYIAGTAPKPSDEYSCSPNGWMYDKHQEGIIPKEIAKVFFQRKDWKKKMFAEEMNAEAIKKIIMKGAGSCSTKPEVERYVKFSDDFLNELSNYTESVLNSLIEECEKAATLANTNQLNRKILINSLYGALGNIHFRYYDLRNATAITIFGQVGIQWIARKINEYLNKVCGTNDEDFIAAGDTDSVYVCVDKVIEKVGLDRFKEQNDLVEFMNQFGKKKMEPMIDVAYRELCDYMNNREHLMHMDREAISCPPLGSKGVGGFWKAKKRYALNVYDMEDKRFAEPHLKIMGMETQQSSTPKAVQEALEESIRRILQEGEESVQEYYKNFEKEYRQLDYKVIAEVKTANDIAKYDDKGWPGFKCPFHIRGVLTYRRAVSGLGVAPILDGNKVMVLPLREGNPFGDKCIAWPSGTELPKEIRSDVLSWIDHSTLFQKSFVKPLAGMCESAGMDYEEKASLDFLFG
# notes: DNA polymerase gp43 of bacteriophage T4 with the exonuclease-deficient mutation D219A; also called gp43 polymerase; T4 polymerase; source: E. coli BL21(DE3), purified (chitin resin with intein-mediated cleavage, heparin)
# B2: T4 bacteriophage gp45 sliding clamp (natural protein, bacteriophage T4)
# chain: MKLSKDTTALLKNFATINSGIMLKSGQFIMTRAVNGTTYAEANISDVIDFDVAIYDLNGFLGILSLVNDDAEISQSEDGNIKIADARSTIFWPAADPSTVVAPNKPIPFPVASAVTEIKAEDLQQLLRVSRGLQIDTIAITVKEGKIVINGFNKVEDSALTRVKYSLTLGDYDGENTFNFIINMANMKMQPGNYKLLLWAKGKQGAAKFEGEHANYVVALEADSTHDF
# notes: sliding clamp gp45 of bacteriophage T4, wild type, homotrimeric ring; also called wt-gp45 clamp; gp45 clamp; source: E. coli BL21(DE3), pET26b, purified (hydroxyapatite, anion exchange)
# B3: dimer-interface mutant gp43(exo-) polymerase (D75R, Q430E, K432E in gp43(exo-) D219A) (enzyme, bacteriophage T4)
# chain: MKEFYISIETVGNNIVERYIDENGKERTREVEYLPTMFRHCKEESKYKDIYGKNCAPQKFPSMKDARDWMKRMERIGLEALGMNDFKLAYISDTYGSEIVYDRKFVRVANCDIEVTGDKFPDPMKAEYEIDAITHYDSIDDRFYVFDLLNSMYGSVSKWDAKLAAKLDCEGGDEVPQEILDRVIYMPFDNERDMLMEYINLWEQKRPAIFTGWNIEGFAVPYIMNRVKMILGERSMKRFSPIGRVKSKLIQNMYGSKEIYSIDGVSILDYLDLYKKFAFTNLPSFSLESVAQHETKKGKLPYDGPINKLRETNHQRYISYNIIDVESVQAIDKIRGFIDLVLSMSYYAKMPFSGVMSPIKTWDAIIFNSLKGEHKVIPQQGSHVKQSFPGAFVFEPKPIARRYIMSFDLTSLYPSIIRQVNISPETIRGEFEVHPIHEYIAGTAPKPSDEYSCSPNGWMYDKHQEGIIPKEIAKVFFQRKDWKKKMFAEEMNAEAIKKIIMKGAGSCSTKPEVERYVKFSDDFLNELSNYTESVLNSLIEECEKAATLANTNQLNRKILINSLYGALGNIHFRYYDLRNATAITIFGQVGIQWIARKINEYLNKVCGTNDEDFIAAGDTDSVYVCVDKVIEKVGLDRFKEQNDLVEFMNQFGKKKMEPMIDVAYRELCDYMNNREHLMHMDREAISCPPLGSKGVGGFWKAKKRYALNVYDMEDKRFAEPHLKIMGMETQQSSTPKAVQEALEESIRRILQEGEESVQEYYKNFEKEYRQLDYKVIAEVKTANDIAKYDDKGWPGFKCPFHIRGVLTYRRAVSGLGVAPILDGNKVMVLPLREGNPFGDKCIAWPSGTELPKEIRSDVLSWIDHSTLFQKSFVKPLAGMCESAGMDYEEKASLDFLFG
# notes: DNA polymerase gp43 of bacteriophage T4 with D219A (exo-) and the three dimer-interface mutations D75R, Q430E and K432E; PDB 9EA3 holds this mutant; the other three entries hold its parent m1; also called dimer-interface mutant polymerase; mutant polymerase; source: E. coli BL21(DE3), purified (chitin resin with intein-mediated cleavage, heparin)
# Columns and labels:
# [1] = molecular target: B2; test: cryo-EM structure; 10 μM gp45 clamp mixed with 5 μM primer/template DNA (20 mM HEPES pH 7.5, 150 mM KOAc, 10 mM MgCl2, 0.5 mM ddTTP, 2 mM DTT; 10 min, 30°C), then 6 μM gp43 polymerase added (10 min room temperature, 1 h on ice); no clamp loader; settings: both partners purified
# [2] = molecular target: the molecule itself; test: as above
# [3] = molecular target: B1; test: as above; settings: both partners purified
# [4] = molecular target: B3; test: as above; settings: both partners purified
# [5] = molecular target: T1, gp43(exo-) DNA polymerase;gp45 sliding …; test: cryo-EM; ddTTP; two-polymerase complex state 1; DNA at right polymerase, primer end outside both active sites; cryo-EM assembly: 1.2 polymerase : 2 clamp : 1 DNA (molar) with ddTTP; proteins purified in HEPES pH 7.8 buffers; assembly salt and temperature not given in material; settings: protein: recombinant;recombinant; chain copies: 2;3; primer-template; 13 nt 5' template overhang, 25 bp duplex
# [6] = molecular target: T2, dimer-interface mutant gp43(exo-) DNA …; test: cryo-EM; ddTTP; one-polymerase holoenzyme, 4.0 A; cryo-EM assembly: 1.2 polymerase : 2 clamp : 1 DNA (molar) with ddTTP; proteins purified in HEPES pH 7.8 buffers; assembly salt and temperature not given in material; settings: protein: recombinant;recombinant; tags: self-cleaving intein chitin tag, removed;; copies: 1;3; primer-template; 13 nt 5' template overhang, 25 bp duplex
binder,measurement,setting,value
B1,stoichiometry N,[1],1 polymerase per clamp ring and 2 polymerases per clamp ring
same,stoichiometry N,[2],2
B2,binding result,[3],binds
same,binding result,[4],binds
B3,stoichiometry N,[1],1 polymerase per clamp ring
"P/T DNA (25-nt primer / 38-nt template) (dsDNA, primer 3'-terminal dideoxycytidine (ddC)) DNA 1: CTGCACGAATTAAGCAATTCGTAATCATGGTCATAGCT DNA 2: AGCTATGACCATGATTACGAATTGC",binding result,[5],binds
same,binding result,[6],binds
